Results as given in patent US20210017293 (published 2021).
Where a chain is given by its changes, count along the chain named. Numbers in names are those of the source.

T1: human TNFR1 (human, UniProt P19438)
T1 chain: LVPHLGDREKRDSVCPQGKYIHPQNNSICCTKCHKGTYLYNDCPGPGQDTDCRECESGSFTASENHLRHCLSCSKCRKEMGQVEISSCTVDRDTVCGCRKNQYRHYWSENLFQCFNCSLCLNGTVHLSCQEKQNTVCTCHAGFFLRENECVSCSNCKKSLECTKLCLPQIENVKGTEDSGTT

B1: DOM1H-131-206 (antibody, V domains shown)
VH: EVQLLESGGGLVQPGGSLRLSCAASGFTFAHETMVWVRQAPGKGLEWVSHIPPDGQDPFYADSVKGRFTISRDNSKNTLYLQMNSLRAEDTAVYHCALLPKRGPWFDYWGQGTLVTVSS
B2: DOM1H-131-206 C-terminal A (antibody, V domains shown)
VH: B1 VH
B3: DOM1H-131-206 P14A + C-terminal ASTKG (antibody, V domains shown)
VH: B1 VH with P14A
B4: DOM1H-131-206 P14A + C-terminal A (antibody, V domains shown)
VH: B1 VH with P14A
B5: DOM1H-131-206 P14T + C-terminal A (antibody, V domains shown)
VH: B1 VH with P14T
B6: DOM1H-131-206 P14T + C-terminal ASTKG (antibody, V domains shown)
VH: B1 VH with P14T
B7: DOM1H-131-206 L11A (antibody, V domains shown)
VH: B1 VH with L11A
B8: DOM1H-131-206 P14Q + C-terminal A (antibody, V domains shown)
VH: B1 VH with P14Q
B9: DOM1H-131-206 P14T (antibody, V domains shown)
VH: B1 VH with P14T
B10: DOM1H-131-206 P14Q + C-terminal ASTKG (antibody, V domains shown)
VH: B1 VH with P14Q
B11: DOM1H-131-206 P14K + C-terminal ASTKG (antibody, V domains shown)
VH: B1 VH with P14K
B12: DOM1H-131-206 P14E (antibody, V domains shown)
VH: B1 VH with P14E
B13: DOM1H-131-206 C-terminal AST (antibody, V domains shown)
VH: B1 VH
B14: DOM1H-131-206 P14K (antibody, V domains shown)
VH: B1 VH with P14K
B15: DOM1H-131-206 P14K + C-terminal A (antibody, V domains shown)
VH: B1 VH with P14K
B16: DOM1H-131-206 P14Q (antibody, V domains shown)
VH: B1 VH with P14Q
B17: DOM1H-131-206 C-terminal S deletion (antibody, V domains shown)
VH: EVQLLESGGGLVQPGGSLRLSCAASGFTFAHETMVWVRQAPGKGLEWVSHIPPDGQDPFYADSVKGRFTISRDNSKNTLYLQMNSLRAEDTAVYHCALLPKRGPWFDYWGQGTLVTVS
B18: DOM1H-131-206 C-terminal ASTKG (antibody, V domains shown)
VH: B1 VH
B19: DOM1H-131-206 C-terminal ASTKGP (antibody, V domains shown)
VH: B1 VH
B20: DOM1H-131-206 P14A, G44E (antibody, V domains shown)
VH: B1 VH with P14A, G44E
B21: DOM1H-131-206 P14A (antibody, V domains shown)
VH: B1 VH with P14A
B22: DOM1H-131-206 K43A (antibody, V domains shown)
VH: B1 VH with K43A
B23: DOM1H-131-206 G44E (antibody, V domains shown)
VH: B1 VH with G44E
B24: DOM1H-131-206 P41A (antibody, V domains shown)
VH: B1 VH with P41A
B25: DOM1H-131-206 C-terminal ASTK (antibody, V domains shown)
VH: B1 VH
B26: DOM1H-131-206 Q13A (antibody, V domains shown)
VH: B1 VH with Q13A
B27: VEGF165 (protein)
chain: APMAEGGGQNHHEVVKFMDVYQRSYCHPIETLVDIFQEYPDEIEYIFKPSCVPLMRCGGCCNDEGLECVPTEESNITMQIMRIKPHQGQHIGEMSFLQHNKCECRPKKDRARQENPCGPCSERRKHLFVQDPQTCKCSCKNTDSRCKARQLELNERTCRCDKPRR

Target: T1, human TNFR1
Assay: SPR

In order of rising Kd:
1. B1  0.0143 nM
2. B2  0.0253 nM

Target: T1, human TNFR1
Assay: ELISA

In order of falling EC50:
1. B13  1.99 nM
2. B3  1.47 nM
3. B10  1.1 nM
4. B16  0.91 nM
5. B9  0.77 nM
6. B6  0.72 nM
7. B14  0.72 nM
8. B1  0.67 nM
9. B5  0.66 nM
10. B12  0.64 nM
11. B4  0.57 nM
12. B7  0.51 nM
13. B17  0.5 nM
14. B11  0.48 nM
15. B8  0.46 nM
16. B15  0.46 nM

Target: T1, human TNFR1
Assay: ELISA
Remark: another data set of the same source

In order of rising EC50:
1. B18  1.9 nM
2. B1  1.97 nM
3. B4  2.22 nM
4. B2  2.71 nM
5. B3  4.64 nM

Target: T1, human TNFR1
Assay: ELISA
Remark: another data set of the same source

In order of falling EC50:
1. B19  11.9 nM
2. B20  2.03 nM
3. B1  1.99 nM
4. B26  1.75 nM
5. B25  1.59 nM
6. B21  1.22 nM
7. B2  1.21 nM
8. B18  1.11 nM
9. B23  0.86 nM
10. B22  0.67 nM
11. B24  0.59 nM

The binders below were run against DMS30038-R (DMS30051) (human) (assay: SPR 37C).

B27 showed a Kd of 0.00431 pM.
